From patent US20110053831A1

Target: JUN1 fragment of c-Jun (UniProt P05412)
Experiment: cell-based or functional assay

| Binder | decrease in growth of yeast on HTU media (reverse two-hybrid) [%] |
| --- | --- |
| RSDYKDDDDKAYQSINSSPVLPENSQELSLHLKQHVTKS [SEQ ID NO 54] | > 50 |
| RSDYKDDDDKGLQGRRRQGYQSIKP [SEQ ID NO 58] | > 50 |
| RSDYKDDDDKAYQSISVVVVLVV [SEQ ID NO 68] | > 50 |
| RSDYKDDDDNTPHSSDGHNNP [SEQ ID NO 52] | > 50 |
| RSDYKDDDDKAYQSM [SEQ ID NO 26] | > 50 |
| RSDYKDDDDKAYQSIIH [SEQ ID NO 36] | > 50 |
| SEQ ID NO 34 (peptide) peptide: RSDYKDDDDKTYQSIKGPENKVKMYFLNDLNFSRRDAGFKARKDALDIASDYENISVVNIPLWGGVVQRIISSVKLSTFLCGLENKDVLIFNFPMAKPFWHILSFFHRLLKFRIVLLIDDKPCRRRPCSLTWYQLMHRYRY | > 50 |
| RSDYKDDDDKAYQESTKALVEGGADLILIETVLVVVVLVV [SEQ ID NO 32] | > 50 |
| SEQ ID NO 72 (peptide) peptide: RSDYKDDDDKAYQSIIGAGKSTLIKALTGVYHADRGTIWLEGQAISPKNTAHAQQCRRRPCSLTWYQLMHRYRY | > 50 |
| SEQ ID NO 66 (peptide) peptide: RSDYKDDDDKAYQSIMAVAAQQPVAFLVGRQRRRGQVGIDSGDQHLRTPLFHELCRRRPCSLAWYQLMHRYRY | > 50 |
| RSDYKDDDDKIYSSILWGTKWCVLLVITP [SEQ ID NO 40] | > 50 |
| RSDYKDDDDKAYQSIIANEEEREKNFASSKKDGSYTDLL [SEQ ID NO 30] | > 50 |
| RSDYKDDDDKLINQSYAYPYIY [SEQ ID NO 38] | > 50 |
| RSDYKDDDDKIIIYIFLNISNSIKNIFDNMGKIR [SEQ ID NO 42] | > 50 |
| SEQ ID NO 64 (peptide) peptide: RSDYKDDDDKAYQSISLAGYHGDTSRTFLVGSVSATARKLVEATQETMIDYTCRRRPCSLTWYQLMHRYRY | > 50 |
| RSDYKDDDDKLYQSLLTATKELLFVAPVAKAFTSCD [SEQ ID NO 46] | > 50 |
| SEQ ID NO 44 (peptide) peptide: RSDYKDDDDKKDSIRRRGENISSQEVEAVLMSHPEVVNAAVYPVRGDLPGD | > 50 |
| SEQ ID NO 50 (peptide) peptide: RSDYKDDDDKKDSIRRRGENISSQEVEAVLMSHPEVVNAAVYPVRGDLPGD | > 50 |
| RSDYKDDDDKAYQSIRSGGIESSSKRER [SEQ ID NO 56] | > 50 |
| RSDYKDDDDKAYQSISFLSQ [SEQ ID NO 48] | > 50 |
| RSDYKDDDDKANQLPKILAGRLIFIKC [SEQ ID NO 70] | > 50 |
| RSDYKDDDDKAYQSKRL [SEQ ID NO 28] | > 50 |
| RSDYKDDDDKGLQGRRQPGQQPQGRWSGRALPAHR [SEQ ID NO 60] | > 50 |
| RSDYKDDDDKGLQGRRQPGQQPQGRWSGRALPAHR [SEQ ID NO 62] | > 50 |
